# Measurements reported in patent US12679878B2, “CRF2 receptor agonists and their use in therapy” (SANOFI, priority 2020, dated 2026).
# Starred links: 1 amine or outer side, 2 acyl side, 3 side chain; linkers in the order of their positions; H or OH if unused. Non-standard residues stand in square brackets, D forms with d. Groups on a side chain read outwards from the residue. No end group written: not given here. *: point of attachment. C18 diacid = O=C(O)CCCCCCCCCCCCCCCCC(=O)*; γGlu = O=C(O)[C@H](CCC(=O)[*:2])N[*:1]; Palmitoyl = CCCCCCCCCCCCCCCC(=O)*; AEEA = NCCOCCOCC(=O)O; Aib = CC(C)(N)C(=O)O
# T1: CRF1R receptor (anti-target) (UniProt P34998 24-415, limits assumed)
# T1 sequence (looked up): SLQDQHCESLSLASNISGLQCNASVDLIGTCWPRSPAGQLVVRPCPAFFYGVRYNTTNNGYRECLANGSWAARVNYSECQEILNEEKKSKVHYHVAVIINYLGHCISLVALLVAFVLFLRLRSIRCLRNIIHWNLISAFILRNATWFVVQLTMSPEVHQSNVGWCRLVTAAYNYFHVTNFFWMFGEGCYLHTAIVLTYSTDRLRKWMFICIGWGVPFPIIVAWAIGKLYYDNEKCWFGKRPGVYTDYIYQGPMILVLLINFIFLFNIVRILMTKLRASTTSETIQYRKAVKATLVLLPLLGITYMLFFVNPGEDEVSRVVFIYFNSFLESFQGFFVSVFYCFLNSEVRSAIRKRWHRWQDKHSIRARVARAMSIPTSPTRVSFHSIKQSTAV
# B1: peptide of SEQ ID NO: 22 (peptide)
# peptide: IVLSLDVPIKLK([AEEA-AEEA-γGlu-C18 diacid])QILLKQERQK[Aib]QRQKAEKNKQILAQV-NH2
# modifications: N-terminus assumed
# SMILES: CC[C@H](C)[C@H](N)C(=O)N[C@H](C(=O)N[C@@H](CC(C)C)C(=O)N[C@@H](CO)C(=O)N[C@@H](CC(C)C)C(=O)N[C@@H](CC(=O)O)C(=O)N[C@H](C(=O)N1CCC[C@H]1C(=O)N[C@H](C(=O)N[C@@H](CCCCN)C(=O)N[C@@H](CC(C)C)C(=O)N[C@@H](CCCCNC(=O)COCCOCCNC(=O)COCCOCCNC(=O)CC[C@H](NC(=O)CCCCCCCCCCCCCCCCC(=O)O)C(=O)O)C(=O)N[C@@H](CCC(N)=O)C(=O)N[C@H](C(=O)N[C@@H](CC(C)C)C(=O)N[C@@H](CC(C)C)C(=O)N[C@@H](CCCCN)C(=O)N[C@@H](CCC(N)=O)C(=O)N[C@@H](CCC(=O)O)C(=O)N[C@@H](CCCNC(=N)N)C(=O)N[C@@H](CCC(N)=O)C(=O)N[C@@H](CCCCN)C(=O)NC(C)(C)C(=O)N[C@@H](CCC(N)=O)C(=O)N[C@@H](CCCNC(=N)N)C(=O)N[C@@H](CCC(N)=O)C(=O)N[C@@H](CCCCN)C(=O)N[C@@H](C)C(=O)N[C@@H](CCC(=O)O)C(=O)N[C@@H](CCCCN)C(=O)N[C@@H](CC(N)=O)C(=O)N[C@@H](CCCCN)C(=O)N[C@@H](CCC(N)=O)C(=O)N[C@H](C(=O)N[C@@H](CC(C)C)C(=O)N[C@@H](C)C(=O)N[C@@H](CCC(N)=O)C(=O)N[C@H](C(N)=O)C(C)C)[C@@H](C)CC)[C@@H](C)CC)[C@@H](C)CC)C(C)C)C(C)C
# B2: peptide of SEQ ID NO: 25 (peptide)
# peptide: IVLSLD[dV]PTKLK([γGlu-Palmitoyl])KKLLKQERKRKEREKAEKNARILERV-NH2
# modifications: N-terminus assumed
# SMILES: CCCCCCCCCCCCCCCC(=O)N[C@@H](CCC(=O)NCCCC[C@H](NC(=O)[C@H](CC(C)C)NC(=O)[C@H](CCCCN)NC(=O)[C@@H](NC(=O)[C@@H]1CCCN1C(=O)[C@H](NC(=O)[C@H](CC(=O)O)NC(=O)[C@H](CC(C)C)NC(=O)[C@H](CO)NC(=O)[C@H](CC(C)C)NC(=O)[C@@H](NC(=O)[C@@H](N)[C@@H](C)CC)C(C)C)C(C)C)[C@@H](C)O)C(=O)N[C@@H](CCCCN)C(=O)N[C@@H](CCCCN)C(=O)N[C@@H](CC(C)C)C(=O)N[C@@H](CC(C)C)C(=O)N[C@@H](CCCCN)C(=O)N[C@@H](CCC(N)=O)C(=O)N[C@@H](CCC(=O)O)C(=O)N[C@@H](CCCNC(=N)N)C(=O)N[C@@H](CCCCN)C(=O)N[C@@H](CCCNC(=N)N)C(=O)N[C@@H](CCCCN)C(=O)N[C@@H](CCC(=O)O)C(=O)N[C@@H](CCCNC(=N)N)C(=O)N[C@@H](CCC(=O)O)C(=O)N[C@@H](CCCCN)C(=O)N[C@@H](C)C(=O)N[C@@H](CCC(=O)O)C(=O)N[C@@H](CCCCN)C(=O)N[C@@H](CC(N)=O)C(=O)N[C@@H](C)C(=O)N[C@@H](CCCNC(=N)N)C(=O)N[C@H](C(=O)N[C@@H](CC(C)C)C(=O)N[C@@H](CCC(=O)O)C(=O)N[C@@H](CCCNC(=N)N)C(=O)N[C@H](C(N)=O)C(C)C)[C@@H](C)CC)C(=O)O
# Biological target: T1, CRF1R receptor (anti-target)
# Assay: cell-based or functional assay
Binder,"EC50 [nM] 0% HSA (cAMP, HTRF) [nM]",Emax (%) (100% = Sauvagine at 100 nM)
B1,> 100,1.2
B2,> 100,0.1
